Here are results for 167 variants from the RNAGym collection of RNA variant scans (doi:10.7554/elife.80360).

The labels stand for the following.
B1: Hairpin Ribozyme (parent)
chain: GUCCUCUUUCACGUGCGCGUGAAAGAGAGAAGUGAACCAGAGAAACACACGUUGUGGUAUAUUACCUGGUA

This data set covers variants of B1. Put plainly: self-cleavage, relative activity (ratio to wild type); higher = more cleavage; co-transcriptional.
G13U A22U: the self-cleavage was determined as 0.622. The same measure for G29A G56A: 0.157; for C37G C46G: 0.211. Consider C37G C46A, for which the self-cleavage worked out at 0.174. For U5G G68A the value was 0.201; for G1A C50U, 0.135. For A31U G57U the value was 0.216; for U2G G19U, 0.336. The same measure for A24C A39C: 0.554; for U58G G69A: 0.292. U8G U58G: the self-cleavage came out at 0.635. As to G13C A59G, the self-cleavage is 0.13.

On to U7C A43G, for which the self-cleavage came to 0.0623. For G27U C65A the value was 0.184; for G32C U70A, 0.0808.

For the variant U2A G32C, the self-cleavage turned out to be 0.0974. The same measure for U55A U70A: 0.181. For U14A U60A the value was 0.987. The same measure for G27A A35U: 0.261; for U20C U63C: 0.184.

Consider C10G A49G, for which the self-cleavage worked out at 0.343. For A26C U53G the value was 0.883. Turning to A24C A49G, the self-cleavage worked out at 0.535. As for C16G A30U, the self-cleavage turned out to be 0.0915.

With G13A C37A, the self-cleavage is 0.373.

As to G25C A44C, the self-cleavage worked out at 0.174. As to U52G G69U, the self-cleavage came out at 0.27. The same measure for G25C C50U: 0.192. For G42C C65A the value was 0.21; for G32A C38G, 0.1. For the variant U14G G32A, the self-cleavage came to 0.191. The same measure for U2C G21U: 0.185; for A23U A31C: 0.147. For C3U A59U the value was 0.205; for C12A U55C, 0.208. For C4G A44C, the self-cleavage was found to be 0.136.

Regarding G13C A30U, the self-cleavage amounted to 0.14. For U20A U60A the value was 0.607; for U7A U60A, 0.893; for U8C A45U, 0.257.

Take U20C U55C: the self-cleavage is 0.159. As to G56A G57U, the self-cleavage worked out at 0.176.

With U14A U20C, the self-cleavage was found to be 1. Regarding U9C C50A, the self-cleavage is 0.215. In the case of A44G U53G, the self-cleavage amounted to 0.112. The same measure for A11C A39U: 0.37. The same measure for G42C C46U: 0.12. The same measure for U2C C65A: 0.195; for A31G G54C: 0.276. As to G57C U67G, the self-cleavage amounted to 0.123. For U2C G32C the value was 0.174; for C4G A59C, 0.15; for C4G A59U, 0.212. The same measure for C50U U58C: 0.232. The same measure for G27U A44U: 0.169; for A64U C66A: 0.156; for A24U A30C: 0.332. Take G29C U53A: the self-cleavage came to 0.116. The same measure for A41U A64G: 0.372; for U52A A71G: 1.12. For A36U G51C the value was 0.446. The same measure for G1A U58C: 0.216; for A24G G54U: 0.607; for A64U U67G: 0.13. For the variant G13C C50A, the self-cleavage was determined as 0.137. The same measure for A59C A71C: 0.304.

With C50U U67C, the self-cleavage worked out at 0.157. Turning to U2G A26G, the self-cleavage stood at 0.277.

On to U5G A26U, for which the self-cleavage was found to be 0.51. For C3U U8G the value was 0.245; for A43G U60C, 0.0979.

For the variant C10G U33C, the self-cleavage was 0.0987.

Take G29C C65A: the self-cleavage worked out at 0.204. For A31U A39G the value was 0.0984; for A22U A59C, 0.17; for U33G G51C, 0.202. As to C3A G54U, the self-cleavage was 0.403. Take U7A U53G: the self-cleavage worked out at 0.688. The same measure for C4U A44G: 0.269. For U7G A64C the value was 0.24; for G27U G56A, 0.0845. For G27C A47U, the self-cleavage is 0.0683. Take G21A A26U: the self-cleavage is 0.525.

For the variant C4U U70C, the self-cleavage was 0.341.

As for G40U U62C, the self-cleavage amounted to 0.212.

In the case of G32C U55C, the self-cleavage was 0.0178. For C10U G69U the value was 0.217; for G15U U63A, 0.164; for A31G A71U, 0.396.

With A64U A71U, the self-cleavage was determined as 0.305.

As to U20C C66G, the self-cleavage stood at 0.152.

With U8A C66G, the self-cleavage worked out at 0.101. As for A11C G56C, the self-cleavage was determined as 0.108. Take G25A A41C: the self-cleavage was found to be 0.814. For C12G U60C, the self-cleavage is 1.04. The same measure for A23G A71U: 0.634; for U20A A59U: 0.144; for G29A A71C: 0.295. For G15U A71U the value was 0.923; for U9A G29A, 0.0709; for U2C G17A, 0.15. For U7A G40U the value was 0.18; for G19A A49G, 0.595. A11U G34U: the self-cleavage was 1.36. As for C66G U70C, the self-cleavage is 0.132. For C10U U58G the value was 0.557. Regarding U5C A44C, the self-cleavage worked out at 0.0386. For C16G A23U the value was 0.718. On to U2C U5C, for which the self-cleavage came to 0.0555.

As for G40A C48G, the self-cleavage came out at 0.135. For C3A G51A, the self-cleavage came to 0.819. The same measure for U14G A71U: 0.678; for U14G A59U: 0.183; for G34C C50U: 1.36.

On to U9G G68U, for which the self-cleavage was determined as 0.189. In the case of G15U A24G, the self-cleavage amounted to 1.12. For G17A U60A the value was 1.02; for C4A U55G, 0.107. Consider A35U A61G, for which the self-cleavage is 0.137. Consider G19C A59U, for which the self-cleavage amounted to 0.19. On to U9G G51U, for which the self-cleavage is 0.814.

As for C6G A64U, the self-cleavage was determined as 0.105. For G34C A61C the value was 0.733; for G17C C38U, 0.481. For A11G A59G the value was 0.199. The same measure for G34A A49G: 0.754; for C12U A45G: 0.162; for C12U A45U: 0.163. As for U58A U62A, the self-cleavage was determined as 0.0926. As to A11G G27U, the self-cleavage came out at 0.248. The same measure for C4A G32A: 0.195. For U7A U58C, the self-cleavage amounted to 1.02. For C16U A22C the value was 0.899; for U2G A24C, 0.293.

Turning to G13A C46U, the self-cleavage came to 0.221. Take C12G G51U: the self-cleavage turned out to be 0.663. For C4G G34A the value was 0.5. Turning to A30C A31U, the self-cleavage was determined as 0.129.

For U60G G68C, the self-cleavage was 0.127. For A47U A64U, the self-cleavage is 0.123. Regarding U8A U67A, the self-cleavage was 0.196. The same measure for U33G C65G: 0.122.

C37A U60G: the self-cleavage was 0.171. Turning to G27C A28C, the self-cleavage was 0.164. Take C10A G21A: the self-cleavage was 0.856. Consider U7A A45U, for which the self-cleavage is 0.261. As for A24G G32C, the self-cleavage came out at 0.242. For U20A A44U the value was 0.177; for U9C A47C, 0.149. For G17U C66A the value was 0.233; for G1U A30U, 0.162. Take G27U C50A: the self-cleavage came to 0.155. For the variant C10G U63C, the self-cleavage stood at 0.104. With U20C A39U, the self-cleavage stood at 0.315.

As for G17C C66G, the self-cleavage was 0.0719. For C4U A49U the value was 0.128; for U20A C37A, 0.218.

With C4A A23C, the self-cleavage worked out at 0.222.

On to C46U A61C, for which the self-cleavage was determined as 0.0903. For U14G U33A the value was 0.116; for G54C A64G, 0.18; for G68A U70C, 0.336. With U7C G34C, the self-cleavage came out at 1.37. The same measure for U14C G69A: 0.341; for G42C A59C: 0.188.

Consider C4G C65A, for which the self-cleavage is 0.206.

Turning to G56C C65G, the self-cleavage is 0.0604.
